This experiment deals with T1, human cardiac troponin T (cTnT) (human, UniProt P45379 2-298).
T1 construct: also called Recombinant human TnT (Roche, 37 kDa)
Nature of the experiment: SPR, Biacore T200, 37 C; Fab captured via anti-human F(ab')2, cTnT analyte. On the procedure: Detailed kinetic investigations were performed at 37° C. on a GE Healthcare T200 instrument. A Biacore CM-5 series S sensor was mounted into the instrument and was preconditioned according to the manufacturer's instructions. The system buffer was HBS-ET (10 mM HEPES (pH 7.4), 150 mM NaCl, 1 mM EDTA, 0.05% (w/v) Tween® 20). The sample buffer was the system buffer supplemented with 1 mg/ml CMD (Carboxymethyldextran, Fluka). In one embodiment an anti-human antibody capture system was established on the CMS biosensor. GAHF(ab′)2, (goat anti human F(ab′)2) (Code Nr.: 109-005-097, lot #13.12.2005, Jackson Immuno Research) was immobilized according to the manufacturer's instructions using NHS/EDC chemistry. 30 μg/ml GAHF(ab′)2 in 10 mM sodium acetate buffer (pH 5.0) were preconcentrated to the flow cells 1, 2, 3 and 4 and were immobilized with 10.000 RU GAHF(ab′)2. The sensor was subsequently saturated with 1 M ethanolamine pH 8.5.
Chimeric anti-TnT antibody fragments were periplasmatically expressed in E. coli cells as described and were lyzed by methods known (for technical details see: Andersen, D. C. & Reilly, D. E. (2004); Production technologies for monoclonal antibodies and their fragments. Curr Opin Biotechnol 15, 456-62). The lysates were diluted 1:20 in sample buffer. Fab fragments were captured via their humanized framework regions from the expression lysates on the biosensor at a flow rate of 10 μl/min for 1 min followed by a 2 min washing step with 10-fold concentrated HBS-EP buffer at 30 μl/min. The Fab fragment capture level (CL) in response units (RU) was monitored. Recombinant human TnT (Roche, 37 kDa) was diluted in sample buffer at 90 nM and a concentration series was produced with […], 30 nM, 11 nM, 3.3 nM, 1.1 nM, 0 nM, 3.3 nM TnT concentration. The analyte concentration series were 80 μl/min for 3 min association phase and the dissociation phase was monitored for 3 min.
The kinetic parameters ka [1/Ms], kd [1/s], t1/2 diss [min], KD [M] and the binding stoichiometry (Molar Ratio) (for details see: Schraeml, M. & Biehl, M. (2012); Kinetic screening in the antibody development process. Methods Mol Biol 901, 171-81.) of the cTnT analyte were determined for each Fab fragment mutant with the Biaevaluation Software (GE healthcare) according to the manufacturer's instructions.

These results are taken from patent US20210009993A1 (ROCHE DIAGNOSTICS OPERATIONS, published 2021).

Numbering of substitutions follows the chain as printed. Numbers in names are those of the source.

In general, Kd refers to the constant that tells how readily two partners part at equilibrium.

B1: anti-cTnT Fab fragment, CDR combination 1 (Y34F) (Fab, V domains shown)
VH: EVQLQQSGPELVKPGASVKMSCKASGYTFTDYFMKWVKQSHGKSLEWIGDINPNNGETFYNQKFKDKATLTVDKSSSTAYMQLNSLTSEDSAVYYCATRVFDYWGQGTTLTVSS
VL: DIVLTQSPASLAVSLGQRATISCKASQSVDYDGTSYMNWFQQKAGQPPKRLIYAASNLESGIPARFSGRGSGTDFALNIHPVEEEDAATYYCQQSNEDPYTFGGGTKLEIKR
notes: tested from E. coli lysate; also called mutant 1
In the case of B1, the Kd came out at 0.61 nM. That is a sub-nanomolar value.

B2: anti-cTnT Fab fragment, CDR combination 9 (Y34I) (Fab, V domains shown)
VH: B1 VH with F33I
VL: B1 VL
notes: tested from E. coli lysate; also called mutant 9
As for B2, the “MR (Molar Ratio)” value is 0.6.

B3: anti-cTnT Fab fragment, CDR combination 21 (F60W, V101Y) (Fab, V domains shown)
VH: B1 VH with F33Y, F59W, V100Y
VL: B1 VL
notes: tested from E. coli lysate; also called mutant 21
B3 gave a t/2-diss of 3 min.

B4: anti-cTnT Fab fragment, CDR combination 19 (Y104F) (Fab, V domains shown)
VH: B1 VH with F33Y, Y103F
VL: B1 VL
notes: tested from E. coli lysate; also called mutant 19
The molecule B4 returned a Kd of 0.48 nM.
